In the nanobody polyreactivity screen of Harvey et al. (2022):

Test: yeast display, Sf9 membrane polyspecificity reagent, FACS + sequencing; frameworks hold sequencing errors
Summary of the method: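 Sorting gates, low and high (top ~1%), were placed on anti-HA fluorescence to track expression and on streptavidin fluorescence to track reagent binding. A clone's polyreactivity label is taken from the gate it came out of. The reagent was 10% biotinylated, detergent-solubilized Sf9 membrane, applied for 1 hour at 4 °C to galactose-induced yeast display cells.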
In the case of “QVQLVESGRGLVQAGGSLRLSCAASGFIFSYYAMGWYRPAPGKERELVAAITVTGGNTNYADSVKGRFTISRDNAKNTVYLQMNSLKPEDTAVYYCAAVVRGPGVYVYDWGQGTQVTVSS”, the “polyreactivity (PSR sort gate)” value is reported as “low polyreactivity”.
In the case of “QVQLVESGRGLVQAGGSLRLSCAASGFMIGINAMGWYRQAPGKERELVDAISTGDRTNYAHSVKGRFTISRDNAKNTVYLQMNSLKPEDTAVYYCAKDWRRNRPYEWTYDYWGQGTQVTVSS”, the “polyreactivity (PSR sort gate)” value is reported as “low polyreactivity”.
For “QVQLVESGRGLVQAGGSLRLSCAASGFTFAPNAMGWYRQAPGKDRELVARIDRAGSTYYADSVKGRFTISRDNAKNTVYLQMNSLKPEDTAVYYCATDYHGQPSPPYQSIKVDYWGQGTQVTVSS”, the “polyreactivity (PSR sort gate)” value was “low polyreactivity”.
With “QVQLVESGRGLVQAGGSLRLSCAASGFTFSLNAMGWYRQAPGKERELVAGISIGGSTNYADSVKGRFTISRDNAKNTVYLQMNSLKPEDTAVYYCNAYYWSATWYFAAWDYYYWGQGTQVTVSS” the “polyreactivity (PSR sort gate)” value was “high polyreactivity”.
With “QVQLVESGRGLVQAGGSLRLSCAASGIIFAQNAMGWYRQAPGKEMVLVAAISLDGGSTNYADSVKGRFTISRDNAKNTVYLQMNSLKPEDTAVYYCAADDGWIEPVYGYYEHEYWGQGTQVTVSS” the “polyreactivity (PSR sort gate)” value was “low polyreactivity”.
In the case of “QVQLVESGRGLVQAGGSLRLSCAASGLTFRVYAMGWYRQAPGKERELVAAITGGGGSTYADSVKGRFTISRDNAKNTVYLQMNSLKPQDTAVYYCNKKGYYYKFDYWGQGTQVTVSS”, the “polyreactivity (PSR sort gate)” value is reported as “low polyreactivity”.
For “QVQLVESGRGLVQAGGSLRLSCAASGRIFFKYAMGRYRPAPGKERELVAAISSSGGRTSYADSVKGRFTISRDNAKNTVYLQMNSLKPEDTAVYYCNVKPSARGSPLYDYWGQGTQVTVSS”, the “polyreactivity (PSR sort gate)” value was “high polyreactivity”.
With “QVQLVESGRGLVQAGGSLRLSCAASGRIFFYYAMGWYREAPGKERELVATISYSGGGTYYADSVKGRFTISRDNAKNTVYLQMNSLKPEDTAVYYCNARWGTPYYIQDFDYWGQGTQVTVSS” the “polyreactivity (PSR sort gate)” value was “low polyreactivity”.
For “QVQLVESGRGLVQAGGSLRLSCAASGRIFGINAMGGYRQAPGKERELVAPITSGVSTNYADSVKGRFTISRDNAKNTVYLQMNSLKPGDTAVYYCAARPRWYFFSYGRQDYGYWGQGTQVTVSS”, the “polyreactivity (PSR sort gate)” value was “low polyreactivity”.
For “QVQLVESGRGLVQAGGSLRLSCAASGRIFGRNAMGWYRQAPGKESELVASITSGGGTNYADSVKGRFTISRDNAKNTVYLQMNSLKPDDTAVYDCAKQFYRPGQQSRYDYWGQGMQVTVSS”, the “polyreactivity (PSR sort gate)” value was “low polyreactivity”.
In the case of “QVQLVESGRGLVQAGGSLRLSCAASGRIFGVYGRGWYRQAPGKERELVAAISWSGATTYYADSVKGRFTISRDNAKNTVYLQMHSLKPEDTAVYYCAADFGWFYDGVAVWFIRILGDYWGQGTQVTVSS”, the “polyreactivity (PSR sort gate)” value is reported as “low polyreactivity”.
With “QVQLVESGRGLVQAGGSLRLSCAASGRIFYNYAMGGYRQAPGKERELVAAISSSGGSTYFADSVKGRFTISRDNAKNTVYLQMNSLKPEDTAVYYCAVRKQYSGRYYRAYDYWGQGTQVTVSW” the “polyreactivity (PSR sort gate)” value was “high polyreactivity”.
For “QVQLVESGRGLVQAGGSLRLSCAASGRIFYYYAMGWYRKAPRKERELVAANTETGGNTYYADSVKGRFTISRDNAKNTVYLQMNSLKPEDTAVYYCARKGRRTHHYGLYSSSVYYWGQGTQVTVSS”, the “polyreactivity (PSR sort gate)” value was “low polyreactivity”.
For “QVQLVESGRGLVQAGGSLRLSCAASGRIIRWNAMGWYRQAPGKERELVAGISGSGGSTYYADSVKGRFTISRDNAKNTVYLQMNSLKPEDTAVYYCAADHYRSRYDYWGQGTQVTVSS”, the “polyreactivity (PSR sort gate)” value was “low polyreactivity”.
With “QVQLVESGRGLVQAGGSLRLSCAASGRTFARYAIGWYRPAPGKERELVATIRRVGSTNYADSVNGRFTISRDNAKNTVYLQMNSLKPEDTAVYYCAARSLRYGRGMYYWGQGTQVTVSS” the “polyreactivity (PSR sort gate)” value was “high polyreactivity”.
In the case of “QVQLVESGRGLVQAGGSLRLSCAASGRTFAYYAMGWYRQAPGKERELVAGITTGGITNYADSVKGRFTISRDNAKNTVYLEMNRLKPEDTAVYYCAKANLFTYWYPGGNFDSAQSDYWGQGTQVTVSS”, the “polyreactivity (PSR sort gate)” value is reported as “low polyreactivity”.
For “QVQLVESGRGLVQAGGSLRLSCAASGRTFPYYAMGWYRQAPGKERELVAAISSSGGSTYYADSVKGRFTISRDNAKNTVYLQMNSLKPEDTAVYYCNRYSRLYLTDDDYWGQGTLVTVSS”, the “polyreactivity (PSR sort gate)” value was “high polyreactivity”.
With “QVQLVESGRGLVQAGGSLRLSCAASGSIFIVYAMGWYRQAPGKERELVAAISWSGGSTYYADSVKGRFTISRDNAKNTVYLQMNSLKPEDSAVYFCAAKYTLPFRDVKYYSWGQGTQVTVSS” the “polyreactivity (PSR sort gate)” value was “high polyreactivity”.
In the case of “QVQLVESGRGLVQAGGSLRLSCAASGSIFIYYAMGWYRQAPGKERELVAAISFSGARTYYADSVKGRFTISRDNAKNTVYLQMNSLKPEDTAVYYCNGARYSRRWPSEYWGQGTQVTVSS”, the “polyreactivity (PSR sort gate)” value is reported as “low polyreactivity”.
With “QVQLVESGRGLVQAGGSLRLSCAASGSIFTSYVMGWYRQAPGKERELVAAISQTGSSTYYADSVKGRFTISRDNAKNTVYLQMNSLKPEDTAVYYFAARRSRGSVRNYDYWGQGTKVTVSS” the “polyreactivity (PSR sort gate)” value was “high polyreactivity”.
With “QVQLVESGRGLVQAGGSLRLSCAASGSIFYGNTMGWYRQAPGTERELVASITRPGDRTYYADSVKGRFTLSRDNAKNTVDLQMNSLKAEDTAVYYCNAGLVLPPPGACIVYFDQMDYWGQGTQVTVSS” the “polyreactivity (PSR sort gate)” value was “low polyreactivity”.
For “QVQLVESGRGLVQAGGSLRLSCAASGSMFGKHVMGWYRQAPGKERELVAAISRSGGRTYYADSVKGRFTISRDNANNTVYLQMNTLKPEDTAVYYCAADGQPIGQQTYDYWGQGTQVTVSS”, the “polyreactivity (PSR sort gate)” value was “high polyreactivity”.
For “QVQLVESGRGLVQAGGSLRLSCAASGSNFSVYAMGWYRKAPGKERELVAGITRGGSTYADSVKGRFTISRDNAKNTVYLQMNCLKPEDTAVYYFNAVWSNFRLGYDYWGQGTQVTVSS”, the “polyreactivity (PSR sort gate)” value was “high polyreactivity”.
In the case of “QVQLVESGRGLVQAGGSLRLSCAASGSTFDGYAMGWYRQAPGKERELVAAINWGGGSTRYADSVKGRFTISRDNAKNTVYLQMNSLKPEDTAVYYCAKYTSSRFDAFNYWGQGTQVTVSS”, the “polyreactivity (PSR sort gate)” value is reported as “high polyreactivity”.
For “QVQLVESGRGLVQAGGSLRLSCAASGSTFHGYPMGWYRQEPGKERELVAAITSGDSTNYADSVKGRYTISRDNAKNTVYLQMNSLKPEDTAVYYCAALQADRDRYPEFDLMDYWGQGTQVTVSS”, the “polyreactivity (PSR sort gate)” value was “low polyreactivity”.
With “QVQLVESGRGLVQAGGSLRLSCAASGSTFLYYAMGWSRQAPGKEMELVAVISWSGVSTYYADSVKGRFTISRDNAKTTVYLQMNSLKPEDTAVYYCAAVPVHTGSLYWGFTTGYDYWGQGTQVTVSS” the “polyreactivity (PSR sort gate)” value was “low polyreactivity”.
With “QVQLVESGRGLVQAGGSLRLSCAASGSTFQYYAMGWYRPATGKERELDAAINSRGTSTFYADSVKGRFTISRDNAKNTVYLQMNSLKPEDTAVDYCNARGPRYGNRYRNDYWGQGTQGTVSS” the “polyreactivity (PSR sort gate)” value was “high polyreactivity”.
In the case of “QVQLVESGRGLVQAGGSLRLSCAASGSTFRYNAMGWYRQAPGKERELVAAINRGGGTDYADSVKGRFTISRDNAKNTDYLQMNSLKPEDTAVYYCAKQFVSYNRWLAYGYWGQGTQVTVSS”, the “polyreactivity (PSR sort gate)” value is reported as “low polyreactivity”.
In the case of “QVQLVESGRGLVQAGGSLRLSCAASGSTFRYYAMGWYRQAPGKERELVASITRGASTNYADSVKGRFTISRDNAKNTVYLQMNSLKPEDTAVYYCAADNYCHTFGGTDLRDDYWGQGTQVTVSS”, the “polyreactivity (PSR sort gate)” value is reported as “low polyreactivity”.
In the case of “QVQLVESGRGLVQAGGSLRLSCADSGYIFWYYAMGWYRQAPGKERELVATITVSAGTTYFADSVKGRFTISRDNAKNTVYLQMNSLKPEDTAVYYCNKRSALSFVYDFDYWGQGTQVTVSS”, the “polyreactivity (PSR sort gate)” value is reported as “low polyreactivity”.
With “QVQLVESGRGLVQAGGSLRLSCASSGSTFRWNAMGWYRQAPGKERELVAAISQSGSSTYYADSVKGRFTISRDNAKNTVYLQMNSLKPEDTAVYYCAARTGRKYYYWGQGTQVTVSS” the “polyreactivity (PSR sort gate)” value was “low polyreactivity”.
In the case of “QVQLVESGRGLVQAGGSLRLSCEDSGNIFPYYAMGWYRQAPGKERELVAAISGSGDRTYYADSVNGRFTISRDNAKNTVYLQMNSLKPEDTAVYYCAAYRRYYGWYDYWGQGTQVTVSS”, the “polyreactivity (PSR sort gate)” value is reported as “high polyreactivity”.
For “QVQLVESGRGLVQAGGSLRLSCGASGRTFGYYGMVGYRQATGKERELVASISRRGVSTYYADSVKGRFTISRDNAKNTVYLQMNSLKPEDTAVYYCAKDYWGYKYDYWGKGTQVTVSS”, the “polyreactivity (PSR sort gate)” value was “high polyreactivity”.
With “QVQLVESGRGLVQAGVSLRLSCADSGSTFDYNAMGCYRQATGKERELVPVNRSGGTTYYADSVKGRFTISRDNANNTVYLQMNSLKPEDTAVYYCAAAFQRRAGSYGGSRRYGYWGQVTQVTVSS” the “polyreactivity (PSR sort gate)” value was “high polyreactivity”.
With “QVQLVESGRGLVQARGSLRLSCAASGFIFYRYAMGWYRQAPGKEREFVAANTSTGTTYYADSVKGRFTISRDNAKNTVYLQMNSLKPEDTAVYYCNAGFRYKYQSSRVDYWGQGTQVTVSS” the “polyreactivity (PSR sort gate)” value was “high polyreactivity”.
In the case of “QVQLVESGRGLVQEGGSLRLSCAPSGLIFRYYAMGWYRQAPGKEREFVAAISGRGASTYYADSVKGRFTISRDNAKITGYLQMNSLTPEDTAVYYCATYFPSAVVAFHMDYWGQGTQVTVSS”, the “polyreactivity (PSR sort gate)” value is reported as “high polyreactivity”.
In the case of “QVQLVESGRRLVQAGGSLRLTCAASGRTFVTNAMGWYRQAPGKERELVAAISSKGGSTYYADSVKGRFTISRDNAKNTVYLQMNSLKPEDTAVYDCNAEGQPLYVSWHDHRYIYGFDYWGQGTQVTVSS”, the “polyreactivity (PSR sort gate)” value is reported as “low polyreactivity”.
For “QVQLVESGSGLVQAGGSLRLSCAASGSIFVNYGMGRYRQAPGKERELVAAINRNGGRTYYADSVKGRFTISRDNAKNTVYLQMNSLKPEDTAVYYCNALYPGGLSLSRLDYWGQGTQVTVSS”, the “polyreactivity (PSR sort gate)” value was “high polyreactivity”.
In the case of “QVQLVESGVCIVQAGGSLRLSCAASGFTFRENAMGWYRQAPGKERELVAAISKRGGTTYYADSVKGRFTSSRDYAKNTVILQTNSLKPEDTAVYYCATQYLIQNKYYSWGQGTQVTVSS”, the “polyreactivity (PSR sort gate)” value is reported as “high polyreactivity”.
In the case of “QVQLVESGVCLVQAGGSLRLSCAASGSTITYNAMGWYRQAPGKERELVASISSGTTTYYADSVKGRFTISRDNAKNTVYLQMNSLHTEDTAVYYCAVDSCSRVQGWLAHNYDYWGQGTQVTVSS”, the “polyreactivity (PSR sort gate)” value is reported as “low polyreactivity”.
